Source: the supplement of paper PMC9112550, “Optimization of the antimicrobial peptide Bac7 by deep mutational scanning” (BMC Biology, 2022)

Each sequence was assayed on Escherichia coli TOP10 (assay: shrunken log2 fold change of peptide-encoding DNA abundance (4.5 h post-induction vs induction); higher = less antimicrobial activity (less host growth inhibition)). Details: time post-induction: 4.5 h; library: site-saturation at positions 5, 18, 19, 20.
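Further: peptides expressed intracellularly from a pBAD plasmid library in pooled LB shake-flask culture, induced with 0.3% L-arabinose, DNA abundance read by NGS, three biological replicates, DESeq2 with apeglm shrinkage.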

Sequence | shrunken log2 fold change
RRIRQRPPRLPRPRPRPVGHPRP | -0.0132
RRIRRRPPRLPRPRPRPCTTPRP | 0.212
RRIRHRPPRLPRPRPRPSEVPRP | -0.277
RRIRCRPPRLPRPRPRPDPWPRP | -0.0438
RRIRVRPPRLPRPRPRPVFTPRP | -0.14
RRIRHRPPRLPRPRPRPPFKPRP | 0.332
RRIRTRPPRLPRPRPRPFVAPRP | -0.0696
RRIRERPPRLPRPRPRPMYNPRP | -0.301
RRIRDRPPRLPRPRPRPRDSPRP | -0.153
RRIRPRPPRLPRPRPRPQPLPRP | 0.16
RRIRSRPPRLPRPRPRPWMWPRP | -0.0985
RRIRWRPPRLPRPRPRPFSDPRP | -0.0111
RRIRLRPPRLPRPRPRPDFKPRP | -0.06
RRIRFRPPRLPRPRPRPVWMPRP | -0.119
RRIRARPPRLPRPRPRPKSDPRP | 0.239
RRIRARPPRLPRPRPRPAGQPRP | 0.143
RRIRHRPPRLPRPRPRPCDEPRP | -0.0443
RRIRHRPPRLPRPRPRPQKLPRP | -0.52
RRIRNRPPRLPRPRPRPPGAPRP | 0.665
RRIRSRPPRLPRPRPRPTPNPRP | 0.306
RRIRTRPPRLPRPRPRPDWDPRP | 0.223
RRIRARPPRLPRPRPRPRPRPRP | 1.99
RRIRTRPPRLPRPRPRPDTRPRP | -0.186
RRIRDRPPRLPRPRPRPCIPPRP | -0.123
RRIRDRPPRLPRPRPRPLGFPRP | -0.0377

Sequence | shrunken log2 fold change
RRIRTRPPRLPRPRPRPVGVPRP | 0.234
RRIRIRPPRLPRPRPRPTHMPRP | 0.578
RRIRRRPPRLPRPRPRPNQYPRP | -0.506
RRIRTRPPRLPRPRPRPEFTPRP | 0.016
RRIRNRPPRLPRPRPRPIGWPRP | 0.115
RRIRHRPPRLPRPRPRPECFPRP | -0.0176
RRIRNRPPRLPRPRPRPNKDPRP | -0.0478
RRIRMRPPRLPRPRPRPCCMPRP | -0.167
RRIRMRPPRLPRPRPRPPGEPRP | 1.47
RRIRTRPPRLPRPRPRPIKSPRP | -0.61
RRIRERPPRLPRPRPRPGQLPRP | -0.131
RRIRSRPPRLPRPRPRPQNCPRP | 0.0871
RRIRWRPPRLPRPRPRPVVNPRP | 0.261
RRIRWRPPRLPRPRPRPHLEPRP | -0.16
RRIRSRPPRLPRPRPRPHKIPRP | -0.48
RRIRQRPPRLPRPRPRPFATPRP | 0.275
RRIRNRPPRLPRPRPRPGLMPRP | 0.235
RRIRMRPPRLPRPRPRPDQHPRP | 0.237
RRIRRRPPRLPRPRPRPWNLPRP | -0.269
RRIRFRPPRLPRPRPRPWASPRP | -0.0247
RRIRPRPPRLPRPRPRPTRYPRP | 0.23
RRIRQRPPRLPRPRPRPPSFPRP | 0.0399
RRIRRRPPRLPRPRPRPDLLPRP | 0.0733
RRIRRRPPRLPRPRPRPVPYPRP | -0.195
RRIRPRPPRLPRPRPRPCNLPRP | -0.593

Sequence | shrunken log2 fold change
RRIRHRPPRLPRPRPRPATFPRP | -0.662
RRIRERPPRLPRPRPRPIFEPRP | 0.0601
RRIRYRPPRLPRPRPRPNCDPRP | -0.504
RRIRFRPPRLPRPRPRPWCRPRP | -0.172
RRIRARPPRLPRPRPRPYDVPRP | -0.0868
RRIRARPPRLPRPRPRPYCDPRP | -0.425
RRIRGRPPRLPRPRPRPTQRPRP | 0.739
RRIRDRPPRLPRPRPRPRENPRP | 0.415
RRIRSRPPRLPRPRPRPCDEPRP | 0.124
RRIRMRPPRLPRPRPRPWIQPRP | -0.228
RRIRLRPPRLPRPRPRPMYPPRP | -0.0826
RRIRYRPPRLPRPRPRPYVDPRP | -0.0075
RRIRPRPPRLPRPRPRPSQSPRP | -0.0693
RRIRIRPPRLPRPRPRPLGHPRP | -0.425
RRIRMRPPRLPRPRPRPLCKPRP | 0.206
RRIRMRPPRLPRPRPRPVECPRP | -0.117
RRIRDRPPRLPRPRPRPQDSPRP | 0.00388
RRIRVRPPRLPRPRPRPQPCPRP | -0.0059
RRIRMRPPRLPRPRPRPPLCPRP | 1.72
RRIRVRPPRLPRPRPRPSAPPRP | 0.358
RRIRTRPPRLPRPRPRPMGQPRP | 0.103
RRIRFRPPRLPRPRPRPNNQPRP | -0.559
RRIRDRPPRLPRPRPRPIPCPRP | -0.0802
RRIRRRPPRLPRPRPRPLHLPRP | -0.318
RRIRWRPPRLPRPRPRPDMPPRP | 0.325
